From US20230090114A1, “METHODS FOR PROMOTING WEIGHT LOSS” (89BIO LTD., priority 2020, published 2023)

Tests used:
[1] = Food intake and meal pattern (daily and METABOpack sessions); type: in vivo, CD-1 mice
From the text: (§1) During the METABOpack™ sessions, animals were housed singly in the Physiocage System (Panlab/Harvard apparatus), which was composed of: • 8 physiocages (LE1301) • 8 Air tight lids for mouse (LE1303) • 8 grid floors for mouse (LE1317) • 8 Feeding bottles for mouse (LE1306) • 2 Air supply and switching units for up to 4 home cages each (LE4004FL) • 1 O2/CO2 analyzer (LE405) • 1 acquisition software suite, METABOLISM (V3.0).
From T1 to T28, vehicle and 89BIO100 (at the 3 different doses) were administrated by subcutaneous (SC) injection three times a week, while the treatment with liraglutide was administrated by subcutaneous route, twice a day, every day. It was important to notice that the first dosing was done just before the […] (at 9:00 AM) and the second dosing was done 8 hours after the first one (at 5:00 PM). Throughout the treatment period, FI and BW were daily measured.
(§2) In the present project, a METABOpack™ session was consisted of a 12-hour period of acclimation followed by a 48-hour period of recording of the respiratory exchanges, FI, water intake (WI) and locomotor activity of each animal.
(§3) Following this acclimation period, the parameters cited above were automatically and simultaneously recorded for 48 hours, except for body weight that was measured manually every day.
(§4) The METABOpack™ sessions were conducted at the start (T1-2), the middle (T14-15) and the end (T26-27) of the treatment period.
Meal pattern analysis was performed on high-resolution recordings of food intake obtained during the METABOpack™ sessions. The Physiocage system allowed recording food intake with an accuracy of 1 measure per second and a precision of 0.02 g. The physiocages were equipped with a system allowing to precisely collect the spillage of the animals, by the mean of a platform located under the food dispenser. This platform and the spillages it contains, were permanently weighted by the system and the values added to the total weight of the food dispenser. With this system, the progressive decrease in the food dispenser net weight only reflected the food consumption of the animals. The analysis was performed by plotting data every minute. Each weight variation of the feeding container (transition from one stable value to another) was considered as a “bout”, with each bout separated from each other bout by an “inter-bout interval”. A meal consisted of at least one bout, with each meal separated from each other meal by a “post-meal interval”. For the purpose of this study, a meal was defined as any feeding episode causing a change in food weight of 0.02 g and separated by at least 5 min from any subsequent episode. Based on this criterion, the following parameters were calculated for each experimental group: […]

[2] = Water intake (METABOpack sessions); type: in vivo, CD-1 mice;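 as to cumulative water intake: water intake recorded in mL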
From the text: as §1, §2, §3, §4

[3] = T1, DP, 3 mg/kg, vs 0.3 and 1 mg/kg
[4] = T1, NP and WD, whatever the dose, vs Liraglutide
[5] = T1, WD and NP, three doses, vs Liraglutide
[6] = T2, 1 mg/kg, vs Liraglutide, 4-24 h
[7] = T2, WD, three doses, vs Liraglutide
[8] = T2, WD, three doses, vs vehicle
[9] = first meal on T14, 3 mg/kg, vs 1 mg/kg
[10] = first meal on T14, 3 mg/kg, vs vehicle

B1: Mutant FGF21-GalNAc-SA-PEG-20 kDa (conjugate)
chain: MHPIPDSSPLLQFGGQVRQRYLYTDDAQQTEAHLEIREDGTVGGAADQSPESLLQLKALKPGVIQILGVKTSRFLCQRPDGALYGSLHFDPEACSFRELLLEDGYNVYQSEAHGLPLHLPGNKSPHRDPAPRGPARFLPLPGLPPALPEPPGILAPQPPDVGSSDPLSMVGPTQGASPSYAS
mean meal size ([1]; BIO89-100-treated mice): no change | mean meal number ([1]; BIO89-100-treated mice, related to increased FC): increase in mean meal number | cumulative food intake ([1]; T1, 0.3 mg/kg, vs vehicle, at 5 h, 6 h, 15-24 h): increased | cumulative food intake ([1]; T1, 1 mg/kg, vs vehicle, at 1 h, 3 h, 18-24 h): increased | cumulative food intake ([1]; T1, 3 mg/kg, vs vehicle, 10-12 h and 14-17 h): increased | mean meal size ([1]; T1, DP, 0.3 mg/kg, vs Liraglutide): increased | mean meal size [1, 3]: decreased | mean meal size ([1]; T1, DP, 3 mg/kg, vs vehicle): reduced | mean food intake ([1]; T1, DP, between groups): no significant difference | mean food intake ([1]; T1, NP and WD, between the three 89BIO-100 groups): No significant difference | mean food intake [1, 4]: increase in mean food intake | mean food intake ([1]; T1, NP, 3 mg/kg, vs vehicle): higher | mean meal number [1, 5]: increased | mean satiety ratio [1, 5]: decreased | mean food intake ([1]; T1, WD, 0.3 and 1 mg/kg, vs vehicle): increased | cumulative food intake ([1]; T1, between the three 89BIO-100 groups): no significant difference | cumulative food intake ([1]; T1, three doses, vs Liraglutide, 5-24 h): increase in cumulative food intake | cumulative food intake ([1]; T2, 0.3 mg/kg, vs Liraglutide, at 5 h, 6 h, 10-24 h): increased | cumulative food intake [1, 6]: increased | cumulative food intake ([1]; T2, 3 mg/kg, vs 0.3 mg/kg, at 1 h and 2 h only): slightly increased | cumulative food intake ([1]; T2, 3 mg/kg, vs Liraglutide, over 24 h except at 4 h): increased | cumulative food intake ([1]; T2, 3 mg/kg, vs vehicle, over 24 h except at 4 h): increased | cumulative food intake ([1]; T2, 0.3 and 1 mg/kg, vs vehicle, 13-24 h): increase in cumulative food intake | cumulative food intake ([1]; T2, 1 vs 3 mg/kg and 0.3 vs 1 mg/kg): no significant difference | mean food intake ([1]; T2, DP, between groups): no significant difference | mean food intake ([1]; T2, NP and WD, between the three 89BIO-100 groups): No significant difference | mean food intake ([1]; T2, NP and WD, whatever the dose, vs Liraglutide): increase in mean food intake | mean food intake ([1]; T2, NP, 3 mg/kg, vs vehicle): higher | mean meal number ([1]; T2, WD, 0.3 and 3 mg/kg, vs vehicle): increased | mean meal number [1, 7]: increased | mean post-meal interval [1, 7]: decreased | satiety ratio [1, 7]: decreased | mean food intake [1, 8]: increased | mean post-meal interval [1, 8]: shorter | mean food intake ([1]; T15, WD only, whatever the dose, vs Liraglutide): increased | mean food intake ([1]; T15, WD only, whatever the dose, vs vehicle): increased | mean meal duration ([1]; T27, 3 mg/kg, vs vehicle, 0.3 and 1 mg/kg groups): significant increase in mean meal duration | mean post-meal interval ([1]; first meal on T14, 0.3 mg/kg, vs vehicle): reduction in mean post-meal interval | mean satiety ratio ([1]; first meal on T14, 1 mg/kg, vs 0.3 mg/kg): higher | mean post-meal interval ([1]; first meal on T14, 1 mg/kg, vs Liraglutide): increase in mean post-meal interval | mean post-meal interval [1, 9]: reduction | mean satiety ratio [1, 9]: reduction | mean post-meal interval [1, 10]: decrease | mean satiety ratio [1, 10]: decrease | mean post-meal interval ([1]; first meal on T15, 1 mg/kg, vs Liraglutide): increase in mean post-meal interval | mean post-meal interval ([1]; first meal on T15, 3 mg/kg, vs 1 mg/kg): lower | mean post-meal interval ([1]; first meal on T15, 3 mg/kg, vs vehicle): decrease in mean post-meal interval | mean first meal latency ([1]; first meal on T15, three doses, vs vehicle): reduced | mean first meal latency ([1]; first meal on T26, 3 mg/kg, vs Liraglutide): increase in mean first meal latency | mean first meal latency ([1]; first meal on T26, 0.3 and 1 mg/kg, vs vehicle): increase in mean first meal latency | increase in FC ([1]; naive CD-1 mice, 0.3-3.0 mg/kg SC 3qW x 4 weeks, up to): up to +94% | food intake ([1]; summary, significantly increased on T1, T2 and T15): increased | mean water intake [2, 3]: decreased | mean water intake ([2]; T1, DP, 0.3 and 1 mg/kg, vs Liraglutide): increased | mean water intake [2, 4]: increase in mean water intake | mean water intake ([2]; T1, three doses, vs vehicle): no significant difference | cumulative water intake ([2]; T2, 0.3 mg/kg, vs Liraglutide, 5-24 h): increased | cumulative water intake ([2]; T2, 0.3 mg/kg, vs vehicle, at 5, 6, 7, 9, 10 h and 12-24 h): increased | cumulative water intake [2, 6]: increased | cumulative water intake ([2]; T2, 1 mg/kg, vs vehicle, 4-24 h): increased | cumulative water intake ([2]; T2, 3 mg/kg, vs Liraglutide, 2-24 h): increased | cumulative water intake ([2]; T2, 3 mg/kg, vs vehicle, 2-24 h): increased | mean water intake ([2]; T2, NP, 0.3 and 1 mg/kg, vs vehicle): increased | mean water intake ([2]; T2, WD, whatever the dose, vs vehicle): increased | cumulative water intake ([2]; T2, between the three 89BIO-100 groups): no significant difference | mean water intake ([2]; T2, whatever the phase, whatever the dose, vs Liraglutide): increase in mean water intake | cumulative water intake ([2]; T14, 1 mg/kg, vs 0.3 mg/kg, at 2 h and 7-24 h): increased | cumulative water intake ([2]; T14, 3 mg/kg, vs 0.3 mg/kg, 3-24 h): increased | cumulative water intake ([2]; T14, 1 and 3 mg/kg, vs Liraglutide, 2-24 h): increased | cumulative water intake ([2]; T14, 1 and 3 mg/kg, vs vehicle, 2-24 h): increased | mean water intake ([2]; T14, NP, 1 and 3 mg/kg, vs 0.3 mg/kg): increased | mean water intake ([2]; T14, WD, 3 mg/kg, vs 0.3 mg/kg): increased | mean water intake ([2]; T14, whatever the phase, 1 and 3 mg/kg, vs Liraglutide): increase in mean water intake | mean water intake ([2]; T14, whatever the phase, 1 and 3 mg/kg, vs vehicle): increased | cumulative water intake ([2]; T15, 1 mg/kg, vs 0.3 mg/kg, 2-24 h): increased | cumulative water intake ([2]; T15, 3 mg/kg, vs 0.3 mg/kg, 1-15 h): increased | cumulative water intake ([2]; T15, 1 and 3 mg/kg, vs Liraglutide, over 24 h): increased | cumulative water intake ([2]; T15, 1 and 3 mg/kg, vs vehicle, over 24 h): increased | cumulative water intake ([2]; T26, 1 mg/kg, vs Liraglutide, at 3 h, 4 h and 6-21 h): increased | cumulative water intake ([2]; T26, 1 mg/kg, vs vehicle, only at 3 h and 4 h): increased | cumulative water intake ([2]; T26, 3 mg/kg, vs 0.3 mg/kg, 5-16 h): increased | cumulative water intake ([2]; T26, 3 mg/kg, vs Liraglutide, 3-24 h): increased | cumulative water intake ([2]; T26, 3 mg/kg, vs vehicle, 3-24 h): increased | mean water intake ([2]; T26, NP and WD, 3 mg/kg, vs vehicle): increased | mean water intake ([2]; T26, NP, 3 mg/kg, vs 0.3 mg/kg): increased | mean water intake ([2]; T26, NP, 1 and 3 mg/kg, vs Liraglutide): increase in mean water intake | mean water intake ([2]; T26, WD, 3 mg/kg, vs Liraglutide): increase in mean water intake | cumulative water intake ([2]; T27, 1 mg/kg, vs vehicle, 2-5 h): increased | cumulative water intake ([2]; T27, 3 mg/kg, vs 0.3 mg/kg, at 1 h and 3-8 h): increased | cumulative water intake ([2]; T27, 3 mg/kg, vs 1 mg/kg, at 3 h, 4 h, 5 h and 7 h): increased | cumulative water intake ([2]; T27, 3 mg/kg, vs Liraglutide, over 24 h): increased | cumulative water intake ([2]; T27, 3 mg/kg, vs vehicle, over 24 h): increased | mean water intake ([2]; T27, NP and WD, 3 mg/kg, vs vehicle and Liraglutide groups): increased | mean water intake ([2]; section On T15 (text prints T14), NP and WD, 1 and 3 mg/kg, vs vehicle): increased | mean water intake ([2]; section On T15, NP and WD, 1 and 3 mg/kg, vs Liraglutide): increase in mean water intake | mean water intake ([2]; section On T15, NP, 1 and 3 mg/kg, vs 0.3 mg/kg): increased | mean water intake ([2]; section On T15, WD, 1 mg/kg, vs 0.3 mg/kg): increased
